According to patent EP1722229B1:

Assays:
[1] = molecular target: protein C (PC) (UniProt P04070); test: cell-based or functional assay
[2] = molecular target: protein C (PC) (UniProt P04070); test: derived from the shift of the Km of PC activation by thrombin on EA.hy926 endothelial cells with 2 µM rhsEPCR

Chain of protein C (PC) (P04070 43-461): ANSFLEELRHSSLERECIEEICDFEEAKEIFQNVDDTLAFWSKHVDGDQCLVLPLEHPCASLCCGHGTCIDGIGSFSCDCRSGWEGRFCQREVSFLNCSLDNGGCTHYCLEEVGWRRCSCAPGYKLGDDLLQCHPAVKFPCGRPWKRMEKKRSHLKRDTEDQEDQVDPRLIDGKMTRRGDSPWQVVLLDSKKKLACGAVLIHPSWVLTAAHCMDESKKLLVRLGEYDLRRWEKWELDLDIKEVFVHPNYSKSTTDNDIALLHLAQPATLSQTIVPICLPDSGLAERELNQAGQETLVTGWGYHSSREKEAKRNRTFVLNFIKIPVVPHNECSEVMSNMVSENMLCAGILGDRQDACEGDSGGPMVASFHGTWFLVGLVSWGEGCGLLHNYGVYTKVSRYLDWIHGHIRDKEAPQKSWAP

With “recombinant human soluble EPCR (rhsEPCR) (receptor)” the Km of PC activation by thrombin on the surface of endothelial cells in the presence of rhsEPCR 2 µM [1] was 1 µM and the Ki [2] was 70 nM.
